Data taken from PMC10983791.

Assays:
[1] = substrate: C[S+](CC[C@H](N)C(=O)[O-])C[C@H]1O[C@@H](n2cnc3c(N)ncnc32)[C@H](O)[C@@H]1O; experiment: KM determination by method of initial rates, HNMT; type: biochemical, human; details: other: HNMT; substrate 100 μM; MTase-Glo readout; pH 8.0
[2] = substrate: NCCc1c[nH]cn1; experiment: purified protein, by the assay type; details: other: HNMT; SAM 100 μM; MTase-Glo readout; pH 8.0
[3] = substrate: C[S+](CC[C@H](N)C(=O)[O-])C[C@H]1O[C@@H](n2cnc3c(N)ncnc32)[C@H](O)[C@@H]1O; experiment: KM determination by method of initial rates, COMT; type: biochemical, human; details: other: COMT; substrate 100 μM; MTase-Glo readout; pH 8.0
[4] = substrate: NC[C@H](O)c1ccc(O)c(O)c1; experiment: KM determination by method of initial rates, COMT; type: biochemical, human; details: other: COMT; SAM 100 μM; MTase-Glo readout; pH 8.0
[5] = substrate: C[S+](CC[C@H](N)C(=O)[O-])C[C@H]1O[C@@H](n2cnc3c(N)ncnc32)[C@H](O)[C@@H]1O; experiment: KM determination by method of initial rates, NNMT; type: biochemical, human; details: other: NNMT; substrate 100 μM; MTase-Glo readout; pH 8.0
[6] = substrate: NC(=O)c1cccnc1; experiment: purified protein, by the assay type; details: other: NNMT; SAM 100 μM; MTase-Glo readout; pH 8.0
[7] = substrate: C[S+](CC[C@H](N)C(=O)[O-])C[C@H]1O[C@@H](n2cnc3c(N)ncnc32)[C@H](O)[C@@H]1O; experiment: KM determination by method of initial rates, GNMT; type: biochemical, human; details: other: GNMT; substrate 100 μM; MTase-Glo readout; pH 8.0
[8] = substrate: C[S+](CC[C@H](N)C(=O)[O-])C[C@H]1O[C@@H](n2cnc3c(N)ncnc32)[C@H](O)[C@@H]1O; experiment: KM determination by method of initial rates, PNMT; type: biochemical, human; details: other: PNMT; norepinephrine 100 μM; pH 8.0
[9] = substrate: NC[C@H](O)c1ccc(O)c(O)c1; experiment: KM determination by method of initial rates, PNMT; type: biochemical, human; details: other: PNMT; SAM 100 μM; fit to substrate inhibition model; pH 8.0

B1: HNMT (Homo sapiens) (protein)
chain: MASSMRSLFSDHGKYVESFRRFLNHSTEHQCMQEFMDKKLPGIIGRIGDTKSEIKILSIGGGAGEIDLQILSKVQAQYPGVCINNEVVEPSAEQIAKYKELVAKTSNLENVKFAWHKETSSEYQSRMLEKKELQKWDFIHMIQMLYYVKDIPATLKFFHSLLGTNAKMLIIVVSGSSGWDKLWKKYGSRFPQDDLCQYITSDDLTQMLDNLGLKYECYDLLSTMDISDCFIDGNENGDLLWDFLTETCNFNATAPPDLRAELGKDLQEPEFSAKKEGKVLFNNTLSFIVIEA
B1 gave a Km [1] of 9.3 ± 2.1 µM and a Km [2] of 5.3 ± 2.1 µM.

B2: COMT (Homo sapiens) (protein)
chain: MPEAPPLLLAAVLLGLVLLVVLLLLLRHWGWGLCLIGWNEFILQPIHNLLMGDTKEQRILNHVLQHAEPGNAQSVLEAIDTYCEQKEWAMNVGDKKGKIVDAVIQEHQPSVLLELGAYCGYSAVRMARLLSPGARLITIEINPDCAAITQRMVDFAGVKDKVTLVVGASQDIIPQLKKKYDVDTLDMVFLDHWKDRYLPDTLLLEECGLLRKGTVLLADNVICPGAPDFLAHVRGSSCFECTHYQSFLEYREVVDGLEKAIYKGPGSEAGP
With B2 the Km [3] was 14.5 ± 1.8 µM and the Km [4] was 13.7 ± 2.2 µM.

B3: NNMT (Homo sapiens) (protein)
chain: MESGFTSKDTYLSHFNPRDYLEKYYKFGSRHSAESQILKHLLKNLFKIFCLDGVKGDLLIDIGSGPTIYQLLSACESFKEIVVTDYSDQNLQELEKWLKKEPEAFDWSPVVTYVCDLEGNRVKGPEKEEKLRQAVKQVLKCDVTQSQPLGAVPLPPADCVLSTLCLDAACPDLPTYCRALRNLGSLLKPGGFLVIMDALKSSYYMIGEQKFSSLPLGREAVEAAVKEAGYTIEWFEVISQSYSSTMANNEGLFSLVARKLSRPL
In the case of B3, the Km [5] is reported as 11.9 ± 5.7 µM and the Km [6] is reported as 3.8 ± 0.5 µM.

B4: GNMT (Homo sapiens) (protein)
chain: MVDSVYRTRSLGVAAEGLPDQYADGEAARVWQLYIGDTRSRTAEYKAWLLGLLRQHGCQRVLDVACGTGVDSIMLVEEGFSVTSVDASDKMLKYALKERWNRRHEPAFDKWVIEEANWMTLDKDVPQSAEGGFDAVICLGNSFAHLPDCKGDQSEHRLALKNIASMVRAGGLLVIDHRNYDHILSTGCAPPGKNIYYKSDLTKDVTTSVLIVNNKAHMVTLDYTVQVPGAGQDGSPGLSKFRLSYYPHCLASFTELLQAAFGGKCQHSVLGDFKPYKPGQTYIPCYFIHVLKRTD
Work on B4 yielded a Km [7] of 12.1 ± 3.6 µM.

B5: PNMT (Homo sapiens) (protein)
chain: MSGADRSPNAGAAPDSAPGQAAVASAYQRFEPRAYLRNNYAPPRGDLCNPNGVGPWKLRCLAQTFATGEVSGRTLIDIGSGPTVYQLLSACSHFEDITMTDFLEVNRQELGRWLQEEPGAFNWSMYSQHACLIEGKGECWQDKERQLRARVKRVLPIDVHQPQPLGAGSPAPLPADALVSAFCLEAVSPDLASFQRALDHITTLLRPGGHLLLIGALEESWYLAGEARLTVVPVSEEEVREALVRSGYKVRDLRTYIMPAHLQTGVDDVKGVFFAWAQKVGL
B5 was tested, and the Km [8] was 3.6 ± 0.6 µM and the Km [9] was 16.2 ± 4.3 µM.
